According to US20150087577A1 (POLYPHOR, published 2015):
Bridges are numbered along the chain shown (N, C = ends). [ ]: non-standard residue; d: D form. 2Nal = N[C@@H](Cc1ccc2ccccc2c1)C(=O)O; Cit = NC(=O)NCCC[C@H](N)C(=O)O; Dab = NCC[C@H](N)C(=O)O; Sar = CNCC(=O)O

B1: Example 132 (peptide)
peptide: cyclo(YR[Cit]CRG[dP]RR[2Nal]CYTK[dP]P)
modifications: disulfide 4-11
SMILES: C[C@@H](O)[C@@H]1NC(=O)[C@H](Cc2ccc(O)cc2)NC(=O)[C@@H]2CSSC[C@H](NC(=O)[C@H](CCCNC(N)=O)NC(=O)[C@H](CCCNC(=N)N)NC(=O)[C@H](Cc3ccc(O)cc3)NC(=O)[C@@H]3CCCN3C(=O)[C@H]3CCCN3C(=O)[C@H](CCCCN)NC1=O)C(=O)N[C@@H](CCCNC(=N)N)C(=O)NCC(=O)N1CCC[C@@H]1C(=O)N[C@@H](CCCNC(=N)N)C(=O)N[C@@H](CCCNC(=N)N)C(=O)N[C@@H](Cc1ccc3ccccc3c1)C(=O)N2
B2: Example 131 (peptide)
peptide: cyclo(YRTCRG[dP]RR[2Nal]CY[Cit]K[dP]P)
modifications: disulfide 4-11
SMILES: C[C@@H](O)[C@@H]1NC(=O)[C@H](CCCNC(=N)N)NC(=O)[C@H](Cc2ccc(O)cc2)NC(=O)[C@@H]2CCCN2C(=O)[C@H]2CCCN2C(=O)[C@H](CCCCN)NC(=O)[C@H](CCCNC(N)=O)NC(=O)[C@H](Cc2ccc(O)cc2)NC(=O)[C@@H]2CSSC[C@H](NC1=O)C(=O)N[C@@H](CCCNC(=N)N)C(=O)NCC(=O)N1CCC[C@@H]1C(=O)N[C@@H](CCCNC(=N)N)C(=O)N[C@@H](CCCNC(=N)N)C(=O)N[C@@H](Cc1ccc3ccccc3c1)C(=O)N2
B3: Example 129 (peptide)
peptide: cyclo(YR[Cit]CRG[dP]RR[2Nal]CY[Sar]K[dP]P)
modifications: disulfide 4-11
SMILES: CN1CC(=O)N[C@@H](CCCCN)C(=O)N2CCC[C@@H]2C(=O)N2CCC[C@H]2C(=O)N[C@@H](Cc2ccc(O)cc2)C(=O)N[C@@H](CCCNC(=N)N)C(=O)N[C@@H](CCCNC(N)=O)C(=O)N[C@H]2CSSC[C@H](NC(=O)[C@H](Cc3ccc4ccccc4c3)NC(=O)[C@H](CCCNC(=N)N)NC(=O)[C@H](CCCNC(=N)N)NC(=O)[C@H]3CCCN3C(=O)CNC(=O)[C@H](CCCNC(=N)N)NC2=O)C(=O)N[C@@H](Cc2ccc(O)cc2)C1=O
B4: Example 134 (peptide)
peptide: cyclo(YR[Cit]CRG[dP][Dab]R[2Nal]CY[Cit]K[dP]P)
modifications: disulfide 4-11
SMILES: N=C(N)NCCC[C@@H]1NC(=O)[C@@H]2CSSC[C@H](NC(=O)[C@H](Cc3ccc4ccccc4c3)NC(=O)[C@H](CCCNC(=N)N)NC(=O)[C@H](CCN)NC(=O)[C@H]3CCCN3C(=O)CNC1=O)C(=O)N[C@@H](Cc1ccc(O)cc1)C(=O)N[C@@H](CCCNC(N)=O)C(=O)N[C@@H](CCCCN)C(=O)N1CCC[C@@H]1C(=O)N1CCC[C@H]1C(=O)N[C@@H](Cc1ccc(O)cc1)C(=O)N[C@@H](CCCNC(=N)N)C(=O)N[C@@H](CCCNC(N)=O)C(=O)N2
B5: Example 130 (peptide)
peptide: cyclo(YRQCRG[dP]RR[2Nal]CY[Cit]K[dP]P)
modifications: disulfide 4-11
SMILES: N=C(N)NCCC[C@@H]1NC(=O)[C@@H]2CSSC[C@H](NC(=O)[C@H](Cc3ccc4ccccc4c3)NC(=O)[C@H](CCCNC(=N)N)NC(=O)[C@H](CCCNC(=N)N)NC(=O)[C@H]3CCCN3C(=O)CNC1=O)C(=O)N[C@@H](Cc1ccc(O)cc1)C(=O)N[C@@H](CCCNC(N)=O)C(=O)N[C@@H](CCCCN)C(=O)N1CCC[C@@H]1C(=O)N1CCC[C@H]1C(=O)N[C@@H](Cc1ccc(O)cc1)C(=O)N[C@@H](CCCNC(=N)N)C(=O)N[C@@H](CCC(N)=O)C(=O)N2
B6: Example 133 (peptide)
peptide: cyclo(YR[Cit]CRG[dP]RR[2Nal]CYTK[dP]P)
modifications: disulfide 4-11
SMILES: C[C@@H](O)[C@@H]1NC(=O)[C@H](Cc2ccc(O)cc2)NC(=O)[C@@H]2CSSC[C@H](NC(=O)[C@H](CCCNC(N)=O)NC(=O)[C@H](CCCNC(=N)N)NC(=O)[C@H](Cc3ccc(O)cc3)NC(=O)[C@@H]3CCCN3C(=O)[C@H]3CCCN3C(=O)[C@H](CCCCN)NC1=O)C(=O)N[C@@H](CCCNC(=N)N)C(=O)NCC(=O)N1CCC[C@@H]1C(=O)N[C@@H](CCCNC(=N)N)C(=O)N[C@@H](CCCNC(=N)N)C(=O)N[C@@H](Cc1ccc3ccccc3c1)C(=O)N2

Biological target: human CXCR4 (human, UniProt P61073 1-352)
Sequence (P61073 whole entry): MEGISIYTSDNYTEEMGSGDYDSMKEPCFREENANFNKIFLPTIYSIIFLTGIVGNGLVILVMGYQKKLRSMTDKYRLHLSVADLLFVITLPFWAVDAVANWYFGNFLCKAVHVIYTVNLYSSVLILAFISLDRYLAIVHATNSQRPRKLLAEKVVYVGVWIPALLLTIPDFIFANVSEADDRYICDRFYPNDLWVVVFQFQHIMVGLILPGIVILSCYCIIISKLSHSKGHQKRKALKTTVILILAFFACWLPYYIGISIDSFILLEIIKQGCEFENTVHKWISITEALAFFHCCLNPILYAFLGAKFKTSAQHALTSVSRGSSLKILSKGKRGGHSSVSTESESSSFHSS
Experiment: cell-based or functional assay

Row | Binder | IC50 (nM) Ca2+ assay (method 2)
1 | B1 | 1.9 nM
2 | B2 | 2.4 nM
3 | B3 | 10.9 nM
4 | B4 | 1.7 nM
5 | B5 | 4.1 nM
6 | B6 | 5.3 nM
